Laboratory results as given in PMC5389675.

Experiments:
Experiment in all cases: EMSA
ETV4 337-436 E404K = target: T1, ETV4 337-436 E404K (Homo sapiens, UniProt P43268 337-436, E404K)
T1 sequence: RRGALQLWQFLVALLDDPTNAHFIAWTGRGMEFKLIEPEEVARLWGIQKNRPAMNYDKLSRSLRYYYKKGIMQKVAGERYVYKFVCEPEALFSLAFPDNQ

ETV4 FL E404K = ETV4 FL E404K (Homo sapiens, UniProt P43268 1-484, E404K)
ETV4 FL K260ac = ETV4 FL K260ac (Homo sapiens, UniProt P43268 1-484)
ETV4 FL F428A/F432A = ETV4 FL F428A/F432A (Homo sapiens, UniProt P43268 1-484, F428A;F432A)
ETV4 337-436 F428A/F432A = ETV4 337-436 F428A/F432A (Homo sapiens, UniProt P43268 337-436, F428A;F432A)
ETV4 FL E423K = ETV4 FL E423K (Homo sapiens, UniProt P43268 1-484, E423K)
ETV4 337-436 E423K = ETV4 337-436 E423K (Homo sapiens, UniProt P43268 337-436, E423K)
ETV4 337-436 E425K = ETV4 337-436 E425K (Homo sapiens, UniProt P43268 337-436, E425K)
ETV4 FL E425K = ETV4 FL E425K (Homo sapiens, UniProt P43268 1-484, E425K)
ETV4 FL I407A/L430A = ETV4 FL I407A/L430A (Homo sapiens, UniProt P43268 1-484, I407A;L430A)
ETV4 FL L430A = ETV4 FL L430A (Homo sapiens, UniProt P43268 1-484, L430A)
ETV4 FL K226ac = ETV4 FL K226ac (Homo sapiens, UniProt P43268 1-484)
ETV4 L430M = ETV4 L430M (Homo sapiens, UniProt P43268 1-484, L430M)
ETV4 337-484 = ETV4 337-484 (Homo sapiens, UniProt P43268 337-484)
Sequence of ETV4 337-484 (P43268 337-484): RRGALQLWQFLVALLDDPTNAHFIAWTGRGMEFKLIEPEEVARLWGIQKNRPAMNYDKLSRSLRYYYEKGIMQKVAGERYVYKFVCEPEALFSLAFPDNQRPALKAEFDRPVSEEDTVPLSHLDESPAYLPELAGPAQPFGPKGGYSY

Sequence of ETV4 FL F428A/F432A (P43268 whole entry F428A/F432A): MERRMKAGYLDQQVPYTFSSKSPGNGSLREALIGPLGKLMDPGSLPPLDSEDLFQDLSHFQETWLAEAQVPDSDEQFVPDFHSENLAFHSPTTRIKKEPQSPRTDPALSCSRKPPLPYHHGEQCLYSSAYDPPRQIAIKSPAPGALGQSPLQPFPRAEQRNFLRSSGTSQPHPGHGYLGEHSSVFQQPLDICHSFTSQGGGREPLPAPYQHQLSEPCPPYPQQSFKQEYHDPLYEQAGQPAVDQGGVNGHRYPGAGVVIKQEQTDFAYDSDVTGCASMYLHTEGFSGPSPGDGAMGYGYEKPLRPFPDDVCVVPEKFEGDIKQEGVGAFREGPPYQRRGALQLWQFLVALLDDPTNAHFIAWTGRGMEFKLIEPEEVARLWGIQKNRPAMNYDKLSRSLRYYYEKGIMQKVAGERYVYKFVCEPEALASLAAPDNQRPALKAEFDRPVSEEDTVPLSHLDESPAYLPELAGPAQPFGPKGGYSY
Sequence of ETV4 L430M (P43268 whole entry L430M): as the sequence (P43268 whole entry F428A/F432A) above, with A428F, L430M, A432F counted along it
Sequence of ETV4 FL E425K (P43268 whole entry E425K): as the sequence (P43268 whole entry F428A/F432A) above, with E425K, A428F, A432F counted along it
Sequence of ETV4 FL E404K (P43268 whole entry E404K): as the sequence (P43268 whole entry F428A/F432A) above, with E404K, A428F, A432F counted along it
Sequence of ETV4 FL K260ac (P43268 whole entry): as the sequence (P43268 whole entry F428A/F432A) above, with A428F, A432F counted along it
Sequence of ETV4 FL K226ac (P43268 whole entry): as the sequence (P43268 whole entry F428A/F432A) above, with A428F, A432F counted along it
Sequence of ETV4 FL E423K (P43268 whole entry E423K): as the sequence (P43268 whole entry F428A/F432A) above, with E423K, A428F, A432F counted along it
Sequence of ETV4 FL L430A (P43268 whole entry L430A): as the sequence (P43268 whole entry F428A/F432A) above, with A428F, L430A, A432F counted along it
Sequence of ETV4 FL I407A/L430A (P43268 whole entry I407A/L430A): as the sequence (P43268 whole entry F428A/F432A) above, with I407A, A428F, L430A, A432F counted along it

B1: 27-mer consensus ETS duplex (dsDNA)
DNA 1: TCGACGGCCAAGCCGGAAGTGAGTGCC
DNA 2: TCGAGGCACTCACTTCCGGCTTGGCCG
With B1 the binding result (ETV4 337-436 E404K) was “binds”, the binding result (ETV4 FL E404K) was “binds” and the Kd (ETV4 FL K260ac) was 0.51 ± 0.03 nM. B1: binds (ETV4 FL F428A/F432A); binds (ETV4 337-436 F428A/F432A); binds (ETV4 FL E423K). B1: binds (ETV4 337-436 E423K); binds (ETV4 337-436 E425K); binds (ETV4 FL E425K). The binding result (ETV4 FL I407A/L430A) was “binds”, the binding result (ETV4 FL L430A) was “binds” and the Kd (ETV4 FL K226ac) was 0.3 ± 0.06 nM. For the same binder, the binding result (ETV4 L430M) was “binds” and the Kd (ETV4 337-484) was 0.11 ± 0.02 nM.
